Broadly, the IC50 is the concentration needed to halve the response being measured. Higher therefore signals lower potency. As a reminder, the Kd is a measure of binding affinity in units of concentration.

Positions count from the first letter of the chain named.

Experimental findings from patent US20160031999A1 (CSL, published 2016) are described below.

Sequences and labels used below:
B1: hu8E2-TS-58 (antibody, V domains shown)
VH: EVQLLESGGGLVQPGGSLRLSCAASGFTFSWYSMTWVRQAPGKGLEWVSSIVPSGGHTQYADSVKGRFTISRDNSKNTLYLQMNSLRAEDTAVYYCAKGPGWGSFDLWGRGTLVTVSS
VL: DIQMTQSPSSLSASVGDRVTITCQASQDINNYLNWYQQKPGKAPKLLIYDASNLQTGVPSRFSGSGSGTDFTFTISSLQPEDIATYYCQQYETQQPFFGPGTKVDIK
B2: hu8E2-TS-133 (antibody, V domains shown)
VH: B1 VH with G99P, P100V, G101D, S104R
VL: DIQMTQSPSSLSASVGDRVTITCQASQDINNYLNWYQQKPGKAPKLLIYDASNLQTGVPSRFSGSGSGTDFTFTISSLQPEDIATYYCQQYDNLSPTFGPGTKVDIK
B3: hu8E2-TS-79 (antibody, V domains shown)
VH: B1 VH with S30A, Y32F, M34V
VL: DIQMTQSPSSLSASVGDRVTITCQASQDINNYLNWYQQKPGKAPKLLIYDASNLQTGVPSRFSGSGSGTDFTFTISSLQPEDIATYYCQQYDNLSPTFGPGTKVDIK
B4: hu8E2-TS-151 (antibody, V domains shown)
VH: B1 VH with G99P, P100H, G101D, S104R
VL: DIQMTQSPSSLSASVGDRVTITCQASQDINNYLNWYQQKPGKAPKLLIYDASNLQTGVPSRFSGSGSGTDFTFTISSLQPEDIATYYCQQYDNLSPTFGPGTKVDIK
B5: hu8E2-TS-89 (antibody, V domains shown)
VH: B1 VH with S30W, W31R, Y32W, M34I
VL: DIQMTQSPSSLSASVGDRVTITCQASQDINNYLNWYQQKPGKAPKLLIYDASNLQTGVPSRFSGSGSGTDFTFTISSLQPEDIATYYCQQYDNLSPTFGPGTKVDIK
B6: hu8E2-TS-64 (antibody, V domains shown)
VH: B1 VH
VL: B1 VL with T93S, Q95W, F97Q
B7: hu8E2-TS-218 (antibody, V domains shown)
VH: B1 VH with D106W, L107E
VL: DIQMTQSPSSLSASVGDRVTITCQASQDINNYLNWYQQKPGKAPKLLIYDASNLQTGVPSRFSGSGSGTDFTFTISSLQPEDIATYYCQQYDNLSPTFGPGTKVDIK
B8: hu8E2-TS-91 (antibody, V domains shown)
VH: B1 VH with S30G, Y32W, M34L
VL: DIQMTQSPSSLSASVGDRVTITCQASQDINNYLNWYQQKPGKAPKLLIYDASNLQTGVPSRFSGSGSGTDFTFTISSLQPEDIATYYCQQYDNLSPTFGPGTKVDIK
B9: hu8E2-TS-134 (antibody, V domains shown)
VH: B1 VH with G99P, P100E, G101D, S104L
VL: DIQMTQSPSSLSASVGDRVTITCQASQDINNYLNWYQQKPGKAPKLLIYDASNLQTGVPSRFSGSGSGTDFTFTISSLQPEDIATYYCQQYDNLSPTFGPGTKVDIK
B10: hu8E2-TS-103 (antibody, V domains shown)
VH: B1 VH with S54Y, G56D, H57L
VL: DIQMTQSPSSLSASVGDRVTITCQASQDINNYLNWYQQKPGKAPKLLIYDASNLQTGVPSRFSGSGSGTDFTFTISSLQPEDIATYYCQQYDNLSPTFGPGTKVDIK
B11: hu8E2-TS-214 (antibody, V domains shown)
VH: B1 VH with D106W, L107F
VL: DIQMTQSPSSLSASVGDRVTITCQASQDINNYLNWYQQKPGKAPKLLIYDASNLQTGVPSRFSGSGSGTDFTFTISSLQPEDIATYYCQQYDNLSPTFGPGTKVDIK
B12: hu8E2-TS-63 (antibody, V domains shown)
VH: B1 VH
VL: B1 VL with E92D, F97N
B13: hu8E2-TS-215 (antibody, V domains shown)
VH: B1 VH with D106W, L107Q
VL: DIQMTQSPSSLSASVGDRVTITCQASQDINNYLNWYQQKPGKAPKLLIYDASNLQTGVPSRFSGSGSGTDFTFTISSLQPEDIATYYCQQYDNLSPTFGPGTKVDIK
B14: hu8E2-TS-107 (antibody, V domains shown)
VH: B1 VH with S54W, G56D, H57F
VL: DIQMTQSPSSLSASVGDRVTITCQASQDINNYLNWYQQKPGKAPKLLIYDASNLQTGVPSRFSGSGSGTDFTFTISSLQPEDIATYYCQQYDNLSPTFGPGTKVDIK
B15: hu8E2-TS-82 (antibody, V domains shown)
VH: B1 VH with S30W, W31R, Y32W, M34V
VL: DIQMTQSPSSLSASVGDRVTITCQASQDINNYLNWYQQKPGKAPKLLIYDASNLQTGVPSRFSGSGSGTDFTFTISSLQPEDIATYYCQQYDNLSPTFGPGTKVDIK
B16: hu8E2-TS-108 (antibody, V domains shown)
VH: B1 VH with S54W, G56T, H57L
VL: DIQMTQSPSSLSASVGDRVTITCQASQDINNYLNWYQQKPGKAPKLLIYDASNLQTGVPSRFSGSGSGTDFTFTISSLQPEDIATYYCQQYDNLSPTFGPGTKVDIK
B17: hu8E2-TS-76 (antibody, V domains shown)
VH: B1 VH with S30W, W31R, Y32W, M34I
VL: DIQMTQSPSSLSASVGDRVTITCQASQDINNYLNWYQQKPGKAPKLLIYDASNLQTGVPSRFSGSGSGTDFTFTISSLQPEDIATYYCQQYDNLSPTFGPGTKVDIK
B18: hu8E2-TS-97 (antibody, V domains shown)
VH: B1 VH with S54W, G55A, G56D, H57Y
VL: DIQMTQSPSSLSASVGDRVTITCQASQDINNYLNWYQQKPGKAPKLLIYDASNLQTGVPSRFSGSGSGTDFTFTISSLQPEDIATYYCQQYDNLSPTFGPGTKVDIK
B19: hu8E2-TS-69 (antibody, V domains shown)
VH: B1 VH with S30G, Y32W, M34V
VL: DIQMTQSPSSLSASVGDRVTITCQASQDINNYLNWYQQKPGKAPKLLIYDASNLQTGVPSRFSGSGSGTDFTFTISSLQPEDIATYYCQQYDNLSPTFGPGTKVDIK
B20: hu8E2-TS-104 (antibody, V domains shown)
VH: B1 VH with S54W, G56T, H57I
VL: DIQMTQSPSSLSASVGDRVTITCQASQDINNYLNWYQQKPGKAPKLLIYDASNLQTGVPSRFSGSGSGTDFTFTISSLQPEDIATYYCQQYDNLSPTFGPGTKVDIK
B21: hu8E2-TS-66 (antibody, V domains shown)
VH: B1 VH with S30A, Y32W, M34I, T35A
VL: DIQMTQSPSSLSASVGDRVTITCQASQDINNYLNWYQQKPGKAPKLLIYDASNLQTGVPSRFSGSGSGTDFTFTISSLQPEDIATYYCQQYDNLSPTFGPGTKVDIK
B22: hu8E2-TS-71 (antibody, V domains shown)
VH: B1 VH with S30W, W31R, Y32W, M34T
VL: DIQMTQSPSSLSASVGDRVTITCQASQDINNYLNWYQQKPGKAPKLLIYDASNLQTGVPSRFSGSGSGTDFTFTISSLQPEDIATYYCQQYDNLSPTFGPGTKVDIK
B23: hu8E2-TS-136 (antibody, V domains shown)
VH: B1 VH with G99P, P100L, G101D, S104R
VL: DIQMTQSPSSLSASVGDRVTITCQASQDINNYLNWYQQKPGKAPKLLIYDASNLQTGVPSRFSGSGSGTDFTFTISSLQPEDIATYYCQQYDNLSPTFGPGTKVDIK
B24: hu8E2-TS-92 (antibody, V domains shown)
VH: B1 VH with Y32W, M34I
VL: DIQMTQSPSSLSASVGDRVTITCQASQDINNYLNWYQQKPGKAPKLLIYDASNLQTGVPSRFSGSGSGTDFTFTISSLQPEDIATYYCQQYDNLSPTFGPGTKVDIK
B25: hu8E2-TS-140 (antibody, V domains shown)
VH: B1 VH with G99P, P100N, G101D, S104L
VL: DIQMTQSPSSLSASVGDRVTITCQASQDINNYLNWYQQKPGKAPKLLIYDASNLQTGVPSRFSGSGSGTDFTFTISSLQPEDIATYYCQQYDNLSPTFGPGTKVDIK
B26: hu8E2-TS-156 (antibody, V domains shown)
VH: B1 VH with G99P, P100E, G101D, S104R
VL: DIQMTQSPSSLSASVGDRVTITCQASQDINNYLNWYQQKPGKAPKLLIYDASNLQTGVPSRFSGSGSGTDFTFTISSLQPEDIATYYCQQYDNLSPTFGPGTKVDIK
B27: hu8E2-TS-135 (antibody, V domains shown)
VH: B1 VH with G99P, P100L, G101D, S104L
VL: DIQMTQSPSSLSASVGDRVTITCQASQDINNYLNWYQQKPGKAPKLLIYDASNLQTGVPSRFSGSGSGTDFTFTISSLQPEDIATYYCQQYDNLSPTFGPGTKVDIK
B28: hu8E2-TS-115 (antibody, V domains shown)
VH: B1 VH with S54H, G56D, H57L
VL: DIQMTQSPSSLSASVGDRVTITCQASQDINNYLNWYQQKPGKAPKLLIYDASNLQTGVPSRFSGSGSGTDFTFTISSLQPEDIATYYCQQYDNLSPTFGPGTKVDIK
B29: hu8E2-TS-129 (antibody, V domains shown)
VH: B1 VH with G99P, P100E, G101D, S104M
VL: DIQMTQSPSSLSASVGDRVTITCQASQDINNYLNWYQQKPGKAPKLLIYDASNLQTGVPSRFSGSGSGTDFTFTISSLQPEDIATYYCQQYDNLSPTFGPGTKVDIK
B30: hu8E2-TS-101 (antibody, V domains shown)
VH: B1 VH with S54W, G56D, H57L
VL: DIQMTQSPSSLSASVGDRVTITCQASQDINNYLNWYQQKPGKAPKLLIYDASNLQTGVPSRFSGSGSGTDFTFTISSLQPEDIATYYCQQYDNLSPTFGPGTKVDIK
B31: hu8E2-TS-143 (antibody, V domains shown)
VH: B1 VH with G99P, P100H, G101D, S104L
VL: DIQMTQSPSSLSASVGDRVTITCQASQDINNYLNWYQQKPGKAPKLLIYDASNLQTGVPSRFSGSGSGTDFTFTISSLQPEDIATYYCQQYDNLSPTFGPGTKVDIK
B32: hu8E2-TS-88 (antibody, V domains shown)
VH: B1 VH with S30W, W31R, Y32W, M34T
VL: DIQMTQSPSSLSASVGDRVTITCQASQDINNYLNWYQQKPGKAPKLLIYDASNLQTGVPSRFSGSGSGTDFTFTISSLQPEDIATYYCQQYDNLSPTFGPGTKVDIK

The target in the first experiment is T1, human IL-11Rα on transfected cells (human, UniProt Q14626 23-422).
T1 sequence: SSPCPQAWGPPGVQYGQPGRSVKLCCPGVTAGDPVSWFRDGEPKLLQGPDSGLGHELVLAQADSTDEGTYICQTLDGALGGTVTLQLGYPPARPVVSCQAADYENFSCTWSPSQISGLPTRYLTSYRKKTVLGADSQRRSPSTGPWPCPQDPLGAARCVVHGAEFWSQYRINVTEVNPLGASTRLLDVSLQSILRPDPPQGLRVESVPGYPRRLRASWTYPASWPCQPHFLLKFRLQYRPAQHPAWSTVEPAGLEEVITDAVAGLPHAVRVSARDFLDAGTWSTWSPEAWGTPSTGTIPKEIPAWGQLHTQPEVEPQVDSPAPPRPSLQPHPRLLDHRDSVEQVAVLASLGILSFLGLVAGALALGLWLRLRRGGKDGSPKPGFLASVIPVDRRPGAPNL
The experiment can be described thus: cell-based or functional assay.
For B1, the “Fold increase in potency relative to 8E2” value was determined as 6 fold and 0.23 µg/mL corresponded to half-maximal inhibition (IC50).

Consider B2, for which the “Fold increase in potency relative to 8E2” value was 4.1 fold and the “IC50” value is 0.23 µg/mL.

For the molecule B3, the “Fold increase in potency relative to 8E2” value is 5.3 fold and the 50% inhibitory concentration (IC50) stood at 0.21 µg/mL.

On to B4, for which the “Fold increase in potency relative to 8E2” value is 2.4 fold and the “IC50” value stood at 0.26 µg/mL.

Consider B5, for which the “Fold increase in potency relative to 8E2” value is 1.4 fold and 0.12 µg/mL corresponded to half-maximal inhibition (IC50).

As for B6, the “Fold increase in potency relative to 8E2” value turned out to be 5.4 fold and 0.26 µg/mL corresponded to half-maximal inhibition (IC50).

In the case of B7, the “Fold increase in potency relative to 8E2” value is 2.7 fold and inhibition was half-maximal at 0.19 µg/mL (IC50).

Turning to B8, the “Fold increase in potency relative to 8E2” value was determined as 1.3 fold and the “IC50” value was determined as 0.34 µg/mL.

Turning to B9, the “Fold increase in potency relative to 8E2” value is 4.3 fold and the “IC50” value is 0.22 µg/mL.

B10: the “Fold increase in potency relative to 8E2” value stood at 4.5 fold and it took 0.33 µg/mL to reach half-maximal inhibition (IC50).

As for B11, the “Fold increase in potency relative to 8E2” value came to 1.6 fold and the “IC50” value turned out to be 0.31 µg/mL.

For the molecule B12, the “Fold increase in potency relative to 8E2” value came to 5.1 fold and the “IC50” value is 0.27 µg/mL.

Turning to B13, the “Fold increase in potency relative to 8E2” value is 1.5 fold and the “IC50” value was found to be 0.34 µg/mL.

As for B14, the “Fold increase in potency relative to 8E2” value amounted to 7.4 fold and the 50% inhibitory concentration (IC50) came out at 0.2 µg/mL.

Turning to B15, the “Fold increase in potency relative to 8E2” value came out at 4.3 fold and the half-maximal inhibitory concentration (IC50) stood at 0.26 µg/mL.

With B16, the “Fold increase in potency relative to 8E2” value is 12.7 fold and the “IC50” value turned out to be 0.12 µg/mL.

For B17, the “Fold increase in potency relative to 8E2” value amounted to 3.4 fold and the “IC50” value was 0.32 µg/mL.

As to B18, the “Fold increase in potency relative to 8E2” value worked out at 1.6 fold and the concentration for half-maximal inhibition (IC50) amounted to 0.26 µg/mL.

Regarding B19, the “Fold increase in potency relative to 8E2” value is 0.9 fold and inhibition was half-maximal at 1.46 µg/mL (IC50).

For B20, the “Fold increase in potency relative to 8E2” value was 5.2 fold and the “IC50” value turned out to be 0.28 µg/mL.

Regarding B21, the “Fold increase in potency relative to 8E2” value came out at 0.5 fold and the 50% inhibitory concentration (IC50) is 2.84 µg/mL.

Regarding B22, the “Fold increase in potency relative to 8E2” value is 3.8 fold and the midpoint of inhibition, the IC50, lay at 0.29 µg/mL.

With B23, the “Fold increase in potency relative to 8E2” value worked out at 6 fold and the “IC50” value was determined as 0.16 µg/mL.

For the molecule B24, the “Fold increase in potency relative to 8E2” value was found to be 2.3 fold and the “IC50” value is 0.18 µg/mL.

With B25, the “Fold increase in potency relative to 8E2” value worked out at 1.5 fold and the “IC50” value came out at 0.42 µg/mL.

Regarding B26, the “Fold increase in potency relative to 8E2” value is 4.9 fold and the half-maximal inhibitory concentration (IC50) is 0.13 µg/mL.

As for B27, the “Fold increase in potency relative to 8E2” value amounted to 4.8 fold and the half-inhibitory concentration (IC50) came out at 0.2 µg/mL.

Turning to B28, the “Fold increase in potency relative to 8E2” value stood at 5.7 fold and the half-inhibitory concentration (IC50) is 0.26 µg/mL.

Turning to B29, the “Fold increase in potency relative to 8E2” value amounted to 4.7 fold and the “IC50” value amounted to 0.2 µg/mL.

On to B30, for which the “Fold increase in potency relative to 8E2” value came out at 2.1 fold and the “IC50” value was 0.19 µg/mL.

B31: the “Fold increase in potency relative to 8E2” value was 1.6 fold and the “IC50” value stood at 0.39 µg/mL.

Consider B32, for which the “Fold increase in potency relative to 8E2” value was found to be 3 fold and half-maximal inhibition (IC50) required 0.36 µg/mL.

A further experiment addresses T2, human IL-11Rα (form used in the assay not stated) (human, UniProt Q14626 23-363, limits assumed).
T2 construct: also called hIL-11R; hIL-11Rα
T2 sequence: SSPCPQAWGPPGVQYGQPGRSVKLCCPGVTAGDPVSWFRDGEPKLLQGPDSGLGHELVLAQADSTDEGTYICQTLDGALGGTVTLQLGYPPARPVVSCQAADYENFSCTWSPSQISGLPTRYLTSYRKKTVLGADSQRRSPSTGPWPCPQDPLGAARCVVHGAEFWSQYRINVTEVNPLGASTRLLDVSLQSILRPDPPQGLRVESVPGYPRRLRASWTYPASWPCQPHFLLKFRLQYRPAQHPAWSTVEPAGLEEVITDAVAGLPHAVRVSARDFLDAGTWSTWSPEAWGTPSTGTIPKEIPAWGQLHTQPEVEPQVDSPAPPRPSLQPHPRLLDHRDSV
The experiment can be described thus: Biacore, pH 8.5, 37°C. Background: SPR reads the build-up and loss of mass on a sensor chip optically.
Take B1: the equilibrium dissociation constant (Kd) was determined as 0.957 nM. That is a sub-nanomolar value.

In turn, B2 registered a Kd of 0.513 nM.

For the molecule B3, the Kd worked out at 2.13 nM.

B4 showed a dissociation constant Kd of 0.242 nM.

In turn, B5 had a Kd of 4.5 nM.

Take B6: the Kd came out at 0.636 nM.

Consider B7, for which the Kd came out at 1.39 nM.

In the case of B8, the dissociation constant (Kd) was found to be 4.73 nM.

Take B9: the dissociation constant Kd worked out at 0.52 nM.

In the case of B10, the dissociation constant Kd amounted to 0.497 nM.

Molecule B11 gave a Kd of 1.11 nM.

As to B12, the Kd stood at 0.642 nM.

B13 came in with a dissociation constant Kd of 1.85 nM.

B14 displayed a Kd of 1.29 nM.

Take B15: the Kd worked out at 2.05 nM. Compared with the last molecule, the Kd is about 1.6-fold higher.

On to B16, for which the Kd worked out at 1.93 nM.

In turn, B17 registered a Kd of 2.73 nM.

The molecule B18 registered a Kd of 1.22 nM.

As to B19, the Kd was found to be 3.56 nM.

For B20, the Kd was 0.995 nM.

For B21, the dissociation constant (Kd) was 7.46 nM.

In the case of B22, the affinity, expressed as Kd, was 2.49 nM.

Molecule B23 displayed a Kd of 0.232 nM.

As to B24, the affinity, expressed as Kd, was 3.2 nM.

Molecule B25 displayed a Kd of 0.471 nM. This Kd lies about 6.8-fold lower than the previous one.

For B26, binding was characterised by a dissociation constant (Kd) of 0.631 nM.

As for B27, binding was characterised by a dissociation constant (Kd) of 0.525 nM. The Kd values of the last two molecules are within 1.5-fold of each other.

Turning to B28, the dissociation constant Kd came out at 0.735 nM.

As for B29, the affinity, expressed as Kd, was 0.63 nM.

Take B30: the Kd stood at 0.785 nM.

B31 displayed a dissociation constant Kd of 0.416 nM.

B32 had a Kd of 2.25 nM.
